Our source for the Kd and relative sliding of PRC1-crosslinked antiparallel microtubules, average phase-1 sliding velocity; 0.2 and 1 nM PRC1 values is article PMC6200392.

Test [1] addresses PRC1 N-terminus (Homo sapiens) (UniProt O43663). The conditions noted are these: cited from earlier work.
In test [2] the target is PRC1 (unlabeled, full-length) (human) (UniProt O43663).

pKd: −log10 of the molar value.

Kif4A C-terminus (from UniProt O95239): the pKd in test [1] is 6.52.
The substance “Kif4A-GFP (from UniProt O95239 1-1232) (natural protein)” came in with a relative sliding of PRC1-crosslinked antiparallel microtubules, average phase-1 sliding velocity; 0.2 and 1 nM PRC1 at 6 nM Kif4A-GFP in test [2] of 4.6 ×10⁻⁶ cm/s.

What is called pKd is −log10 of the Kd, conventionally taken in molar units.
